Measured values: IntAct's records for PubMed 22796944

Columns and labels:
[1] = biological target: cdc73_yeast CDC73 (UniProt Q06697)
[2] = biological target: rtf1_yeast RTF1 (UniProt P53064)
Chain of rtf1_yeast RTF1 (P53064 whole entry): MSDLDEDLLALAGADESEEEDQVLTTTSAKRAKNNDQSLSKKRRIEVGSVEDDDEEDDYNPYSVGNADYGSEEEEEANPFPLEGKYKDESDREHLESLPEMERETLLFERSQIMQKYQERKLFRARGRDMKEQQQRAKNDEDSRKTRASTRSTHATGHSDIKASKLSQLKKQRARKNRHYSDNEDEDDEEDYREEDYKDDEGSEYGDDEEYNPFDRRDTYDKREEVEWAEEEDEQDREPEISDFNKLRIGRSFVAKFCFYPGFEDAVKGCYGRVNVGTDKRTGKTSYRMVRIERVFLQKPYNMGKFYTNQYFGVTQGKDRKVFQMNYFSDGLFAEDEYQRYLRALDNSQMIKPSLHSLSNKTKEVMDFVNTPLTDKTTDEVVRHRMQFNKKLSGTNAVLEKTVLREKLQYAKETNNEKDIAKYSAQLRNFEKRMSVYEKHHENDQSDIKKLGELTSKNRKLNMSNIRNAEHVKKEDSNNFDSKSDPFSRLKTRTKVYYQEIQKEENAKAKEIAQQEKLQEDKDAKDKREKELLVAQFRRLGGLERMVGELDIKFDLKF

Chain of cdc73_yeast CDC73 (Q06697 whole entry): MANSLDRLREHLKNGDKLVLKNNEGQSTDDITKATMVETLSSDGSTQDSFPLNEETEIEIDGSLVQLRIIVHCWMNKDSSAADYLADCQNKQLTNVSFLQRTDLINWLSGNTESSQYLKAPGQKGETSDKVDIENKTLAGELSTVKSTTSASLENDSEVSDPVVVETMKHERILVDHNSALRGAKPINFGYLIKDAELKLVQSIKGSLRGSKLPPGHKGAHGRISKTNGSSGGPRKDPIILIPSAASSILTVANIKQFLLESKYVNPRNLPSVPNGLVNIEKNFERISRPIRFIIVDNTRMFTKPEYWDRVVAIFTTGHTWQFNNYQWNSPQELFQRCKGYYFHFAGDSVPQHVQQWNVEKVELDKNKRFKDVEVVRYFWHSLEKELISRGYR

effect of a mutation on the interaction [1]	effect of a mutation on the interaction [2]	Substance
decreasing interaction	disrupting interaction	DNA-directed RNA polymerase II subunit RPB1 (Saccharomyces cerevisiae), P04050 S1557D
decreasing interaction	disrupting interaction	DNA-directed RNA polymerase II subunit RPB1 (Saccharomyces cerevisiae), P04050 S1560D
